This note sets out measurements from patent publication US20220389095A1 (AGENUS, published 2022).

This experiment addresses T1, human TIGIT (human, UniProt Q495A1 22-244).
T1 construct: whole, on cells; The assays used cell-surface TIGIT; also called T-cell immunoreceptor with Ig and ITIM domains; VSIG9
T1 sequence (looked up): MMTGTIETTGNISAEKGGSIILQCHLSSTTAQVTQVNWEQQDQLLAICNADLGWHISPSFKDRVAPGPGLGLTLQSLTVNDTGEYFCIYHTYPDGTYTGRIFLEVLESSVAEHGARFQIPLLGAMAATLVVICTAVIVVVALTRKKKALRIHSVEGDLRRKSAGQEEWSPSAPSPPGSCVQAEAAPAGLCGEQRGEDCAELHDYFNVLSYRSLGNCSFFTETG
In words: flow cytometry on anti-CD3-activated human PBMC, gated on CD4+ and CD8+ T cells. The method, then:
After four days, the sample plates were centrifuged for two minutes at 2000 rpm and then supernatants were discarded. Samples were blocked with FcγR Block prepared in FACs buffer at 5 μL per 100 μL for 10 minutes. Sample plates were then centrifuged for two minutes at 2000 rpm and the supernatant was discarded. The cells were then resuspended in 100 μL of BA159 or a relevant isotype control antibody. To prepare antibodies, each antibody was diluted to 40 μg/mL in buffer for a final volume of 200 μL. Antibodies were then serially diluted 1 to 4 for a total of 12 dilutions ranging from 40 μg/mL to 0.00000954 μg/mL.
Cells were then resuspended in a cocktail of fluorescently labeled antibodies prepared in FACs buffer. 100 μL of antibody was add per well of a round-bottom 96-well plate. The sample plate was incubated for 20 minutes on ice. Cells were then washed by addition of cold sample buffer, centrifuged for two minutes at 2000 rpm, and supernatants were discarded. This wash was repeated once. […]
Antibody binding was measured by flow cytometry using a BD LSR Fortessa Flow Cytometer. […] 100,000 events were recorded for each sample. Samples were analyzed by sequentially gating on the following populations: FSC-A vs SSC-A, FSC-H vs FSC-A, SSC-A vs LIVE/DEAD, and CD4 vs CD8 Mean fluorescence intensity (MFI) was calculated.

B1: BA159 (antibody, human IgG1, lambda)
heavy: EVQLVQSGAEVKKPGSSVKVSCKASGYTFASYGISWVRQAPGQGLEWMGGITPFFNRVDVAEKFQGRVTITADKSTSTAYIELSSLRSEDTAVYYCARDLRRGGVGDAFDIWGRGTLVTVSSASTKGPSVFPLAPSSKSTSGGTAALGCLVKDYFPEPVTVSWNSGALTSGVHTFPAVLQSSGLYSLSSVVTVPSSSLGTQTYICNVNHKPSNTKVDKRVEPKSCDKTHTCPPCPAPELLGGPDVFLFPPKPKDTLMISRTPEVTCVVVDVSHEDPEVKFNWYVDGVEVHNAKTKPREEQYNSTYRVVSVLTVLHQDWLNGKEYKCKVSNKALPLPEEKTISKAKGQPREPQVYTLPPSREEMTKNQVSLTCLVKGFYPSDIAVEWESNGQPENNYKTTPPVLDSDGSFFLYSKLTVDKSRWQQGNVFSCSVMHEALHNHYTQKSLSLSPGK
light: QSALTQPRSVSGSPGQSVTISCTGTSSDVGSHNYVSWYQQHPGKAPKLMIYEVSYRPSGVSNRFSGSKSGNTASLTISGLQAEDEADYYCSSYTPSSATVFGAGTKLTVLGQPKAAPSVTLFPPSSEELQANKATLVCLISDFYPGAVTVAWKADSSPVKAGVETTTPSKQSNNKYAASSYLSLTPEQWKSHRSYSCQVTHEGSTVEKTVAPTECS
notes: also called anti-TIGIT antibody BA159
With B1, the binding result is “binds”.
